Measured values as given in publication PMC9433092, “Closely related type II-C Cas9 orthologs recognize diverse PAMs”.

B1: GRIN2B TS17 (mixed)
RNA: GUGCAGUUAGGGAAUAAGCCCCAGUUGUAGCUCCCUUUCUCAUUUCGGAAACGAAAUGAGAACCGUUGCUACAAUAAGGCCGUCUGAAAAGAUGUGCCGCAACGCUCUGCCCCUUAAAGCUUCUGCUUUAAGGGGCAUCGUUUAUUUUUUU
DNA 1: TGCAGTTAGGGAATAAGCCCCAGTGTCAAG
DNA 2: CTTGACACTGGGGCTTATTCCCTAACTGCA
B2: AAVS1 TS3 (mixed)
RNA: GUCUGACCUGCAUUCUCUCCCCUGUUGUAGCUCCCUUUCUCAUUUCGGAAACGAAAUGAGAACCGUUGCUACAAUAAGGCCGUCUGAAAAGAUGUGCCGCAACGCUCUGCCCCUUAAAGCUUCUGCUUUAAGGGGCAUCGUUUAUUUUUUU
DNA 1: TCTGACCTGCATTCTCTCCCCTGGGCCTGT
DNA 2: ACAGGCCCAGGGGAGAGAATGCAGGTCAGA
B3: EMX1 TS13 (mixed)
RNA: GGUGGUAGAGGGAGCAGUAUGAGUUGUAGCUCCCUUUCUCAUUUCGGAAACGAAAUGAGAACCGUUGCUACAAUAAGGCCGUCUGAAAAGAUGUGCCGCAACGCUCUGCCCCUUAAAGCUUCUGCUUUAAGGGGCAUCGUUUAUUUUUUU
DNA 1: GGTGGTAGAGGGAGCAGTATGAGAGTCTGG
DNA 2: CCAGACTCTCATACTGCTCCCTCTACCACC
B4: AAVS1 TS4 (mixed)
RNA: GCUGUCCCCUCCACCCCACAGUGGUUGUAGCUCCCUUUCUCAUUUCGGAAACGAAAUGAGAACCGUUGCUACAAUAAGGCCGUCUGAAAAGAUGUGCCGCAACGCUCUGCCCCUUAAAGCUUCUGCUUUAAGGGGCAUCGUUUAUUUUUUU
DNA 1: CTGTCCCCTCCACCCCACAGTGGGGCCACT
DNA 2: AGTGGCCCCACTGTGGGGTGGAGGGGACAG
B5: AAVS1 TS5 (mixed)
RNA: GGUCUGAGGGUGGAGGGACUGGGUUGUAGCUCCCUUUCUCAUUUCGGAAACGAAAUGAGAACCGUUGCUACAAUAAGGCCGUCUGAAAAGAUGUGCCGCAACGCUCUGCCCCUUAAAGCUUCUGCUUUAAGGGGCAUCGUUUAUUUUUUU
DNA 1: GGTCTGAGGGTGGAGGGACTGGGGGCCTGG
DNA 2: CCAGGCCCCCAGTCCCTCCACCCTCAGACC
B6: AAVS1 TS1 (mixed)
RNA: GCAGCAUAGGGUGGCAAAGCCCAGUUGUAGCUCCCUUUCUCAUUUCGGAAACGAAAUGAGAACCGUUGCUACAAUAAGGCCGUCUGAAAAGAUGUGCCGCAACGCUCUGCCCCUUAAAGCUUCUGCUUUAAGGGGCAUCGUUUAUUUUUUU
DNA 1: CAGCATAGGGTGGCAAAGCCCAGGGCCAGG
DNA 2: CCTGGCCCTGGGCTTTGCCACCCTATGCTG

Biological target: T1, Nsp2-SmuCas9 (synthetic)
T1 chain: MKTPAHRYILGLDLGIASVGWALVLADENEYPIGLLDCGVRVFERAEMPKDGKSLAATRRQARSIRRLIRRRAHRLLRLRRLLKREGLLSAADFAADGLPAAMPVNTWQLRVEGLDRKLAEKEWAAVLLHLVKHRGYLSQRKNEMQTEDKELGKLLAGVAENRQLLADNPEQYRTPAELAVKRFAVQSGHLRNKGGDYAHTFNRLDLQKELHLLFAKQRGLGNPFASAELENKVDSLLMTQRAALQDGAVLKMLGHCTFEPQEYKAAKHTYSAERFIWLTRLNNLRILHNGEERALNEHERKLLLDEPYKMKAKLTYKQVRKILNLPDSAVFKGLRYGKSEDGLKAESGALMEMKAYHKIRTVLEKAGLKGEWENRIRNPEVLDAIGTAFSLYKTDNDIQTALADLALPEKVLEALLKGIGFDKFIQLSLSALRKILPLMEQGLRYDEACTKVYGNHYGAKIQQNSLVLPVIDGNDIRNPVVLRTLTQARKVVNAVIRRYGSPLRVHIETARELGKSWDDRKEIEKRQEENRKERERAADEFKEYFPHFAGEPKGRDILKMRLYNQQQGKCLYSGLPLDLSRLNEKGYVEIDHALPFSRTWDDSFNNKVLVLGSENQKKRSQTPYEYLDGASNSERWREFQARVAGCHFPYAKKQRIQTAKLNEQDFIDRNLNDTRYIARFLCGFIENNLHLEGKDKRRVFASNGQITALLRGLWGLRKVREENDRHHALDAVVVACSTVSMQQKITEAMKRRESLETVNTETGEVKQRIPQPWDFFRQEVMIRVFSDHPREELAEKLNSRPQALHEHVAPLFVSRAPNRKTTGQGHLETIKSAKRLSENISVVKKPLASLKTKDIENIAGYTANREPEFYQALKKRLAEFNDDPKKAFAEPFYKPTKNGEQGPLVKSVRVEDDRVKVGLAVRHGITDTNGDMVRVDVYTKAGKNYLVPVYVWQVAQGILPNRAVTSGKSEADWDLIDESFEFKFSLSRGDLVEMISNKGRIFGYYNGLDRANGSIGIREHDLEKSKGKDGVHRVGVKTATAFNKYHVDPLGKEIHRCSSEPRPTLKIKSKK
Test: HEK293T cells
Details: tags: NLS and HA tags, kept

| Binder | indel frequency |
| --- | --- |
| B1 | 23.2 % indels |
| B2 | 17.9 % indels |
| B3 | 35.6 % indels |
| B4 | 6.53 % indels |
| B5 | 17.8 % indels |
| B6 | 16.7 % indels |

biological target: T2, NarCas9 (Neisseria arctica, UniProt A0A0J0YQ19); test: HEK293T cells; details: tags: NLS and HA tags, kept
T2 sequence: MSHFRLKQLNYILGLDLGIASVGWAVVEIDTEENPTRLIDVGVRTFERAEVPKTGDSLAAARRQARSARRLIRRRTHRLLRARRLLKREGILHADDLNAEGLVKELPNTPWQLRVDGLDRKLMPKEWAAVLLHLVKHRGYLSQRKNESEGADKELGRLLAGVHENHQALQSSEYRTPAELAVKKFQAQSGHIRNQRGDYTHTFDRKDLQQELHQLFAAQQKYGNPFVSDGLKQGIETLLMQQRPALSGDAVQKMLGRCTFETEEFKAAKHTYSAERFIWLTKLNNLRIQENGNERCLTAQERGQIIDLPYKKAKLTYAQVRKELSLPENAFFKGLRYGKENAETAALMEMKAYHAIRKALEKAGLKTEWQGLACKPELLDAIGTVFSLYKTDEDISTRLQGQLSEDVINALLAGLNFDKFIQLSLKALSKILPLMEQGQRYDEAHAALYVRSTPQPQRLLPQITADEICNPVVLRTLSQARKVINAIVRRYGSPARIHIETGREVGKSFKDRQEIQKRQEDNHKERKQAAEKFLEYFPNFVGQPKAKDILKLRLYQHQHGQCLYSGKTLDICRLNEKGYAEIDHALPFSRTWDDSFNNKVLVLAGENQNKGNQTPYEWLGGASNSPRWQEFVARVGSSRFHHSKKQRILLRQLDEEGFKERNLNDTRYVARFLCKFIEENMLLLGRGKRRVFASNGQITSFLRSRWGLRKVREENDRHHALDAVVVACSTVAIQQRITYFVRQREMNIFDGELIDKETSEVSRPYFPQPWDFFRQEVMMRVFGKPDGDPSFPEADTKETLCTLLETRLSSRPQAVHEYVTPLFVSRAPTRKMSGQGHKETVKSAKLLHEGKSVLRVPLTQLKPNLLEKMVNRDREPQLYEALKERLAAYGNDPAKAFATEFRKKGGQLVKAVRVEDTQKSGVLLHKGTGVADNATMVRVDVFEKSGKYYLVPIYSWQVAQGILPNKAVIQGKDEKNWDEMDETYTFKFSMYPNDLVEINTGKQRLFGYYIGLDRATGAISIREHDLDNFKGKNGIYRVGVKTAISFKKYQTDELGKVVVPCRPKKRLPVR

| Binder | indel frequency |
| --- | --- |
| B1 | 7.65 % indels |
| B2 | 9.89 % indels |
| B3 | 18.4 % indels |
| B4 | 5.75 % indels |
| B5 | 13.2 % indels |
| B6 | 10.9 % indels |

Biological target: T3, Nme2-SmuCas9 (synthetic)
T3 chain: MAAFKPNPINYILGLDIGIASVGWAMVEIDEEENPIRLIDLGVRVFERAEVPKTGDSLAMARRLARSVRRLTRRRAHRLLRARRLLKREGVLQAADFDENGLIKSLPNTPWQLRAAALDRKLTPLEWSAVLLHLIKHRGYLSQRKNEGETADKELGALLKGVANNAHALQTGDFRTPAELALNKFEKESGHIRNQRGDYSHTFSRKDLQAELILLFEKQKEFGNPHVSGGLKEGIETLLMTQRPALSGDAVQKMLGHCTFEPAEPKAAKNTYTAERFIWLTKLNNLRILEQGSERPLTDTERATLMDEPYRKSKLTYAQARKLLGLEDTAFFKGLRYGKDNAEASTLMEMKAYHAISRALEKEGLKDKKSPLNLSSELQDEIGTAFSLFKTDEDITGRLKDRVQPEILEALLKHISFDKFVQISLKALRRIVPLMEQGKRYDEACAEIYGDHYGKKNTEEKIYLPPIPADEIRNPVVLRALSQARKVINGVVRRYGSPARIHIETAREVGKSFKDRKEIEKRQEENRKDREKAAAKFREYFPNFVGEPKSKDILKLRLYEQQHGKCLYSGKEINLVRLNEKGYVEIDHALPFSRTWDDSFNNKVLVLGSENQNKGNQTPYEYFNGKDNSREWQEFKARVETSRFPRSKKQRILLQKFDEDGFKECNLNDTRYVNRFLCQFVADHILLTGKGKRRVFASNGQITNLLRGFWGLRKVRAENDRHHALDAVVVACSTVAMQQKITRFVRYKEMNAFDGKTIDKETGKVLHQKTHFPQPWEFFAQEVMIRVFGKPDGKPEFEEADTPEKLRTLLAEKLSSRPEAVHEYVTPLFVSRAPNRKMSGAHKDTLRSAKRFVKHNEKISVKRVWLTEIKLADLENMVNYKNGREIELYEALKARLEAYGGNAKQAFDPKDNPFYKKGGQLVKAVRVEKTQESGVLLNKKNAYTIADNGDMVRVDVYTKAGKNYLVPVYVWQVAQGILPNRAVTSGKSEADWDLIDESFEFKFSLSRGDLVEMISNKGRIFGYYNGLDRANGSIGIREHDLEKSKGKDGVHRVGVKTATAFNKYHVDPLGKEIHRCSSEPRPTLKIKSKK
Test: HEK293T cells
Details: tags: NLS and HA tags, kept

| Binder | indel frequency |
| --- | --- |
| B3 | 12.2 % indels |
| B5 | 14.5 % indels |
